Reference: publication PMC10044823, “Defensin Interactions in Relation to Monoclonal and Disease-Related Proteinase 3 Antibodies Binding at the Catalytic Site” (Antibodies, 2023)
Residue numbers refer to the chain shown, from its start.

T1: PR3 peptide 17 (Homo sapiens, UniProt P24158)
T1 construct: By the stated scheme this would be residues 161-180 of mature PR3; source: synthetic peptide (Schäfer-N); not shown: cysteine, N-terminal, kept
T1 chain: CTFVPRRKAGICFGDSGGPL

T2: PR3 peptide 1 (Homo sapiens, UniProt P24158)
T2 construct: By the stated scheme (20-mers, overlap 10, from the mature N-terminus) this would be residues 1-20 of mature PR3; Coupled to CovaLink-NH plates by the extra N-terminal cysteine; source: synthetic peptide (Schäfer-N); not shown: cysteine, N-terminal, kept
T2 chain: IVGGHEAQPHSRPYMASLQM

T3: PR3 peptide 2 (Homo sapiens, UniProt P24158)
T3 construct: By the stated scheme this would be residues 11-30 of mature PR3; source: synthetic peptide (Schäfer-N); not shown: cysteine, N-terminal, kept
T3 chain: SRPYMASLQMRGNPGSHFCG

T4: PR3 peptide 3 (Homo sapiens, UniProt P24158)
T4 construct: By the stated scheme this would be residues 21-40 of mature PR3; source: synthetic peptide (Schäfer-N); not shown: cysteine, N-terminal, kept
T4 chain: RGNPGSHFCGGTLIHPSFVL

T5: PR3 peptide 7 (Homo sapiens, UniProt P24158)
T5 construct: By the stated scheme this would be residues 61-80 of mature PR3; source: synthetic peptide (Schäfer-N); not shown: cysteine, N-terminal, kept
T5 chain: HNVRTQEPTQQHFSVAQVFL

T6: PR3 peptide 16 (Homo sapiens, UniProt P24158)
T6 construct: By the stated scheme this would be residues 151-170 of mature PR3; source: synthetic peptide (Schäfer-N); not shown: cysteine, N-terminal, kept
T6 chain: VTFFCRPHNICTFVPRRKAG

T7: PR3 peptide 20 (Homo sapiens, UniProt P24158)
T7 construct: source: synthetic peptide (Schäfer-N); not shown: cysteine, N-terminal, kept
T7 chain: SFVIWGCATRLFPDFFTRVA

B1: PR3 MAb HYB 172-01 (antibody, V domains shown)
VH: EVQLEQSGGDLVKPGGSLKLSCAASGFTFSTYGMSWVRQTPDKRLEWVATFVSGGSYNYYPDSVKGRFAISRDNAKNALYLQMSSLKSEDTAMYYCVRRGASYDALDYWGQGTSVTVSS
VL: SIVMTQTPKFLLVSAGDRITITCKASQSVSNDVAWYQQKPGQSPKLLIYYASNRYTGVPDRFTGSGYGTDFTFTISTVQAEDLAVYFCQQDYSSPFTFGSGTKLEIK
notes: Mouse IgG1,κ (clone 6A6); raised against a Triton X-100 extract of purified neutrophil granulocyte alpha-granules; also called clone 6A6; source: mouse hybridoma, produced in-house
B2: PR3 MAb HYB 172-05 (antibody, V domains shown)
VH: EVQLQQSGPDLVKPGASVKISCKASGYSFTGYYLHWVKQSHGKSLEWIGRVNPNNDITTYNQKFKDKAILTVDKSSSTAYMEFRSLTSEDSAVYYCAGGGNALDYWGQGTSVTVSS
VL: B1 VL with S1R, I19V, D32N, A34G, P40T, S93N, F96Y, S100G
notes: Mouse IgG2a,κ (clone 4A5); also called clone 4A5; source: mouse hybridoma, produced in-house
B3: 172-03 (antibody, V domains shown)
VH: QVQLQQAGAELVKPGASVKLSCKASGYTFTNYWMHWVKQRPGQGLEWIGEINPTNGGINYNEEFIKKATLTADKSSNTAYMQLSGLTSEDSAVYFCLIEIMTGEGYWGQGTSLTVSS
VL: DILMTQSPSSLTVSAGEKVTMSCKSSQNLLVSGNQNNYLAWHQQKPGRSPKMLIIWASTRVSGVPDRFIGSGSGTDFTLTINSVQAEDLAVYYCQQSFSAPLTFGAGTKLELK
B4: Proteinase 3 purified in-house from human neutrophil granulocytes (SSI PR3) (enzyme, UniProt P24158 28-248, looked up)
chain: IVGGHEAQPHSRPYMASLQMRGNPGSHFCGGTLIHPSFVLTAAHCLRDIPQRLVNVVLGAHNVRTQEPTQQHFSVAQVFLNNYDAENKLNDVLLIQLSSPANLSASVATVQLPQQDQPVPHGTQCLAMGWGRVGAHDPPAQVLQELNVTVVTFFCRPHNICTFVPRRKAGICFGDSGGPLICDGIIQGIDSFVIWGCATRLFPDFFTRVALYVDWIRSTLR
modifications: small N-linked glycans on Asn102 and 147; none, one or two alpha-defensins covalently attached to the glycans
notes: proteinase 3, human, active mature enzyme purified from neutrophil granulocytes; The preparation carries on average 5-6 associated alpha-defensins per PR3 (mostly non-covalent); proteolytically active; also called PR3 (SSI); native PR3 complex
B5: Proteinase 3 from Wieslab/Eurodiagnostica (Wieslab PR3) (enzyme, human, UniProt P24158 28-248, looked up)
chain: B4 chain
modifications: small N-linked glycans on Asn102 and 147; none, one or two alpha-defensins covalently attached to the glycans
notes: proteinase 3, human, commercial preparation; The preparation carries on average 5-6 associated alpha-defensins per PR3; proteolytically active; also called PR3 (Wieslab); source: bought: Wieslab/Eurodiagnostica
B6: Proteinase 3 from Arotec (Arotec PR3) (enzyme, human, UniProt P24158 28-248, looked up)
chain: B4 chain
modifications: small N-linked glycans on Asn102 and 147; none, one or two alpha-defensins covalently attached to the glycans
notes: proteinase 3, human, commercial preparation; On average 1-2 associated defensins per PR3; source: bought: Arotec
B7: PR3 MAb HYB 172-04 (antibody, V domains shown)
VH: B2 VH with Q3K, Q5E
VL: EIVLTQSPAIMSASLGEEITLTCSASSSVSYMHWYQQKSGTSPKLLIYSTSNLASGVPSRFSGSGSGTFYSLTISSVEAEDAADYYCHQWSSYGTFGGGTKLEIK
notes: Mouse IgG2a,κ (clone 4A3); also called clone 4A3; source: mouse hybridoma, produced in-house

Assays:
[1] = target: T8, Proteinase 3 purified in-house from human neutrophil granulocytes (SSI PR3) (human, UniProt P24158, small N-linked glycans on Asn102 and 147; none, one or two alpha-defensins covalently attached to the glycans); test: ELISA; elution assays with buffers of different pH: pH at which the MAb dissociated from PR3; conditions: both partners purified
T8 construct: proteinase 3, human, active mature enzyme purified from neutrophil granulocytes; The preparation carries on average 5-6 associated alpha-defensins per PR3 (mostly non-covalent); proteolytically active; also called PR3 (SSI); native PR3 complex

PR3 peptide 17 = target: T1, PR3 peptide 17; test: ELISA; synthetic 20-mer PR3 peptides coupled by an N-terminal cysteine to CovaLink-NH plates; MAb in solution; corrected by non-coated wells; conditions: both partners purified
[2] = target: T8, Proteinase 3 purified in-house from …; test: SPR; Biacore 1000, CM5 chip, SSI PR3 immobilised by amine coupling (1287 RU); MAb (whole IgG) injected at 0.1 and 0.4 µg/mL, 25 °C, HBS-E pH 7.4 (10 mM HEPES, 3 mM EDTA, 150 mM NaCl); Langmuir or drifting baseline fit; 'pseudo-affinity/avidity' constants (apparent); conditions: both partners purified
[3] = target: T8, Proteinase 3 purified in-house from …
human α1-antitrypsin = target: T9, human α1-antitrypsin (human, UniProt P01009 25-418); test: ELISA + other: SDS-PAGE; α1-AT binding of the PR3 preparations, 'Determined by ELISA and/or SDS-PAGE'; conditions: both partners purified
T9 construct: also called AT; α1-AT; source: bought: Calbiochem, Merck

PR3 peptide 1 = target: T2, PR3 peptide 1; test: ELISA; synthetic 20-mer PR3 peptides coupled by an N-terminal cysteine to CovaLink-NH plates; MAb in solution; corrected by non-coated wells; conditions: both partners purified
PR3 peptide 2 = target: T3, PR3 peptide 2; test: as above; conditions: both partners purified
PR3 peptide 3 = target: T4, PR3 peptide 3; test: as above; conditions: both partners purified
PR3 peptide 7 = target: T5, PR3 peptide 7; test: as above; conditions: both partners purified
PR3 peptide 16 = target: T6, PR3 peptide 16; test: as above; conditions: both partners purified
PR3 peptide 20 = target: T7, PR3 peptide 20; test: as above; conditions: both partners purified

T9 sequence (P01009 25-418): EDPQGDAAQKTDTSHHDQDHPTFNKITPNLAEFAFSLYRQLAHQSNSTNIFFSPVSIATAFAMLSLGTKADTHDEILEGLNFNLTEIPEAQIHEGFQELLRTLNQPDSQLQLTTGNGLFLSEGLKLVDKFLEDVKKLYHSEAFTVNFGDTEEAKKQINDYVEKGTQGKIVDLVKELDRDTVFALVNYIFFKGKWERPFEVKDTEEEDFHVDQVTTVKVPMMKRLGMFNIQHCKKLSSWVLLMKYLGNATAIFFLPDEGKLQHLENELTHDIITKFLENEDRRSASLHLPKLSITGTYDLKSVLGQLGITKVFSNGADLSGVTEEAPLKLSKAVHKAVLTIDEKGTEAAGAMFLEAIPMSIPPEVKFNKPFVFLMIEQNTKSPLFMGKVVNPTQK

Binder	Elution pH (High) [1] [pH]	Elution pH (Low) [1] [pH]	binding result (PR3 peptide 17)	Ka [2] [M⁻¹]	koff [2] [s⁻¹]	kon [2] [M⁻¹ s⁻¹]	binding result (human α1-antitrypsin)	also measured
B1	12	4	binds	5.23e+13	5.21e-08	2.72e+06	–	Kd [2]: 0.0191 pM
B2	12	2	binds	1.81e+11	6.84e-05	1.24e+07	–	–
B3	–	–	–	–	–	–	–	binding result [3]: binds
B4	–	–	–	–	–	–	binds	–
B5	–	–	–	–	–	–	binds	–
B6	–	–	–	–	–	–	binds	–
B7	12	2	binds	1.8e+10	0.000571	1.03e+07	–	binding result (PR3 peptide 1): binds; binding result (PR3 peptide 2): binds; binding result (PR3 peptide 3): binds; binding result (PR3 peptide 7): binds; binding result (PR3 peptide 16): binds; binding result (PR3 peptide 20): binds; Kd [2]: 55.5 pM
